Our source for the Kd and koff values is article PMC9250508 (2022).

This assay concerns the target D614G RBD. As to the kind of experiment: BLI.

B1: AZD8895 Fab (Fab, V domains shown)
VH: QMQLVQSGPEVKKPGTSVKVSCKASGFTFMSSAVQWVRQARGQRLEWIGWIVIGSGNTNYAQKFQERVTITRDMSTSTAYMELSSLRSEDTAVYYCAAPYCSSISCNDGFDIWGQGTMVTVSS
VL: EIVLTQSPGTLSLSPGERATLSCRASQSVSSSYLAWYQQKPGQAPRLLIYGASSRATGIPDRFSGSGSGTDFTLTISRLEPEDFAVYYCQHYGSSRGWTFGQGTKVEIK
In turn, B1 showed a Kd of 9.79 nM and a koff of 0.00603 s⁻¹.

B2: AZD1061 Fab (Fab, V domains shown)
VH: EVQLVESGGGLVKPGGSLRLSCAASGFTFRDVWMSWVRQAPGKGLEWVGRIKSKIDGGTTDYAAPVKGRFTISRDDSKNTLYLQMNSLKTEDTAVYYCTTAGSYYYDTVGPGLPEGKFDYWGQGTLVTVSS
VL: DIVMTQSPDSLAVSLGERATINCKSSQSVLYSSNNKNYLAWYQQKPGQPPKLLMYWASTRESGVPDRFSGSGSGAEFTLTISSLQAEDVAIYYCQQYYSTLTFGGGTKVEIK
Molecule B2 displayed a Kd of 14.5 nM and a koff of 0.00217 s⁻¹.
